Patent US20260274955A1 (JANUX THERAPEUTICS, published 2026)

Key:
[1] = target: T1, Anti-CD28 Fab (SEQ ID NOs: 202, 203); test: phage ELISA, Fab on plate, CD28 antigen as competitor
T1 construct: biotinylated and captured on neutravidin coated plates in the phage ELISA
Experimental: (§1) After panning, phage infected bacteria were plated out and colonies picked into 96 well blocks. Clonal phage was then amplified and separated from bacterial cells via centrifugation.
(§2) Clonal phage were harvested as crude supernatants and screened via standard ELISAs. […] Prior to the addition of clonal phage, wells were incubated with blocking buffer and CD28 antigen or blocking buffer alone. Without washing or aspirating, clonal phage supernatants were then added to the wells and incubated for a short time. Wells were then washed followed by detection of bound phage using a horse radish conjugated anti-M13 antibody. Clonal phage of interest were then sent for sequence analysis.

[2] = target: T1, Anti-CD28 Fab (SEQ ID NOs: 202, 203); test: phage ELISA, Fab on plate;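 note: crude clonal phage supernatants added to wells pretreated with blocking buffer with or without CD28 antigen, then bound phage read out via HRP-linked anti-M13 antibody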
Experimental: as §1, §2

T1 sequence (VH, as listed by the source, chain 1 of 2): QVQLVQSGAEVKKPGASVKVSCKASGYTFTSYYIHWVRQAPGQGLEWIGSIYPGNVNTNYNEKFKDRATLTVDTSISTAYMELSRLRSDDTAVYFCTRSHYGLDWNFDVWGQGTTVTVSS
T1 sequence (VL, as listed by the source, chain 2 of 2): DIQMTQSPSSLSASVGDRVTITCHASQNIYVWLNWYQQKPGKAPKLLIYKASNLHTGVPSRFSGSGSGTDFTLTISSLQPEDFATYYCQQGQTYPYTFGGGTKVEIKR

Row | Binder | Anti-CD28 Fab signal in the presence of CD28 [1] | Anti-CD28 Fab (SEQ ID NOs: 202, 203) signal [2]
1 | YCQGHSPNYITKCF [Phage-608] | 0.06 | 1.41
2 | YCDGHSKEYMAKCL [Phage-646] | 0.06 | 1.34
3 | YCDGLFQLYMMKCL [Phage-624] | 0.07 | 1.38
4 | YCEGHSQQYMQKCL [Phage-605] | 0.08 | 1.42
5 | YCEGHSQQYMWKCL [Phage-711] | 0.05 | 1.17
6 | YCEGHSQTYMWKCL [Phage-709] | 0.08 | 1.17
7 | YCEGHSYQYMQKCL [Phage-715] | 0.06 | 1.16
8 | YCDGHLSIYMTKCL [Phage-638] | 0.07 | 1.36
9 | YCDGHQPQYMSKCL [Phage-628] | 0.09 | 1.38
10 | YCDGHMVQYMAKCL [Phage-639] | 0.07 | 1.36
11 | YCNGHLPEYMSKCI [Phage-618] | 0.07 | 1.4
12 | YCDGHSPEYMQKCL [Phage-617] | 0.53 | 1.4
13 | YCDGHSHEYMQKCL [Phage-611] | 0.06 | 1.41
14 | YCDGHLQEYMQKCL [Phage-627] | 0.06 | 1.38
15 | YCDGHLPEYMQKCL [Phage-643] | 0.08 | 1.35
16 | YCEGHSQLYMAKCL [Phage-630] | 0.07 | 1.37
17 | YCDGHLALYMWKCL [Phage-637] | 0.17 | 1.36
18 | YCDGHSLEYMLKCL [Phage-620] | 0.07 | 1.39
19 | YCDGHVKEYMYKCL [Phage-636] | 0.06 | 1.36
20 | YCDGHSPAFIQKCL [Phage-606] | 0.08 | 1.42
21 | YCDGHDARYMEKCL [Phage-616] | 0.06 | 1.4
22 | YCDGHLMEYKAKCL [Phage-613] | 0.06 | 1.41
23 | YCLGHSWPYIHKCY [Phage-602] | 0.07 | 1.43
24 | YCAGHTSEYMSKCL [Phage-634] | 0.07 | 1.36
25 | YCEGHLPAYMGKCI [Phage-632] | 0.09 | 1.37
26 | YCAGHASEYMAKCL [Phage-650] | 0.08 | 1.33

Row | Binder | Anti-CD28 Fab signal in the presence of CD28 [1] | Anti-CD28 Fab (SEQ ID NOs: 202, 203) signal [2]
27 | YCDGHMKEYMLKCL [Phage-635] | 0.06 | 1.36
28 | YCDGHSEEFMWKCL [Phage-640] | 0.06 | 1.35
29 | YCEGHSPEYMHKCL [Phage-647] | 0.09 | 1.34
30 | YCDGHAPEYIQKCL [Phage-625] | 0.06 | 1.38
31 | YCAGHSAEYMSKCL [Phage-612] | 0.07 | 1.41
32 | YCDGHSPEHMGKCL [Phage-615] | 0.09 | 1.4
33 | YCEGHMEKYMEKCL [Phage-641] | 0.11 | 1.35
34 | YCDGHSLEYIDKCM [Phage-607] | 0.09 | 1.42
35 | YCEGHSAEYIAKCL [Phage-614] | 0.09 | 1.41
36 | YCDGHSAEYIAKCL [Phage-662] | 0.05 | 1.31
37 | YCEGHSAEYIGKCL [Phage-738] | 0.07 | 1.08
38 | YCEGHHPWYVQKCL [Phage-621] | 0.07 | 1.39
39 | YCDGHAEQYMSKCL [Phage-623] | 0.07 | 1.38
40 | YCDGHAPEYLGKCL [Phage-609] | 0.06 | 1.41
41 | YCDGHTPEYMWKCL [Phage-604] | 0.06 | 1.43
42 | YCDGHTKEYMWKCL [Phage-736] | 0.06 | 1.1
43 | YCDGHLPRYMAKCL [Phage-642] | 0.1 | 1.35
44 | YCDGHLPDYMAKCL [Phage-712] | 0.07 | 1.17
45 | YCDGHSEAYIEKCL [Phage-648] | 0.06 | 1.34
46 | YCDGHLSEYIGKCL [Phage-629] | 0.06 | 1.37
47 | YCSGHLPEYMDKCL [Phage-619] | 0.07 | 1.39
48 | YCEGHLDEYLQKCL [Phage-626] | 0.07 | 1.38
49 | YCDGHLDEYMLKCL [Phage-603] | 0.06 | 1.43
50 | YCAGHAEEYLEKCL [Phage-610] | 0.15 | 1.41
51 | YCDGHLLQYMHKCL [Phage-644] | 0.07 | 1.35
52 | YCDGHSETYLWKCL [Phage-631] | 0.1 | 1.37
